Test results as given in patent publication US20030232325A1 (MOUNT SINAI SCHOOL OF MEDICINE OF NEW YORK UNIVERSITY, published 2003).

How the values were obtained:
[1] = target: T1, NS1-BP fragment (amino acids 347 to 619) expressed from the HeLa cDNA library plasmid p59-1 (activation … (human, UniProt Q9Y6Y0 347-611)); assay: yeast interaction trap, lacZ reporter
T1 sequence: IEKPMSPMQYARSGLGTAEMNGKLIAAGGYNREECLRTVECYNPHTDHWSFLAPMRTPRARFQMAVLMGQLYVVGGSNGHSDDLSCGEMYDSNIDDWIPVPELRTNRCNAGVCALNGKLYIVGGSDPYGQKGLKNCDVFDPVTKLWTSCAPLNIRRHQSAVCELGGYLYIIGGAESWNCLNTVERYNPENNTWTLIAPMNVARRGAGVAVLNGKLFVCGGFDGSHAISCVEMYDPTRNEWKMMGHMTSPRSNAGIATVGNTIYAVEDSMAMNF

[2] = target: T2, NS1I-1 fragment expressed from the HeLa cDNA library plasmid pK5 (activation domain fusion) (human, UniProt P51659 266-736); assay: yeast interaction trap, lacZ reporter; pRFHM1 as control bait
T2 sequence: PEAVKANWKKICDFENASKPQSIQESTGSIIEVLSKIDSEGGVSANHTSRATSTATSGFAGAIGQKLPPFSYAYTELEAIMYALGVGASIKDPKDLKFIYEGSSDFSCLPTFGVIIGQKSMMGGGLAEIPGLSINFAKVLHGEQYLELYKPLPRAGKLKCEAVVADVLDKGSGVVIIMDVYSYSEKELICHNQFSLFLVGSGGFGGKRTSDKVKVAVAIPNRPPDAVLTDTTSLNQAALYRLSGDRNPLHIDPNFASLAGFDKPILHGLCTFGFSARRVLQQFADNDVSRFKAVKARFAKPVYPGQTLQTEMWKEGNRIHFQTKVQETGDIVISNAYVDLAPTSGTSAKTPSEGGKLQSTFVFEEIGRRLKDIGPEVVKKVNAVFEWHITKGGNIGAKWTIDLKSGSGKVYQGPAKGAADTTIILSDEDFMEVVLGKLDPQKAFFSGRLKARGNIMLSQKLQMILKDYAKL

[3] = target: T3, rabies virus M protein (form used not stated; discussion of Example 9, data not shown) (rabies virus, UniProt P16287 1-202); assay: far-western blot presumably; data not shown
T3 sequence: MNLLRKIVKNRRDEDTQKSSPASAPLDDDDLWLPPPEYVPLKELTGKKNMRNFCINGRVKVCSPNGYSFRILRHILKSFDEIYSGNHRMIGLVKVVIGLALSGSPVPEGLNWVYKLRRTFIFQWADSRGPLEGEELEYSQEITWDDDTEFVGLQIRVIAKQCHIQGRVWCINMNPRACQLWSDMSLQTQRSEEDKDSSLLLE

B1: LexA-bicoid fusion protein (encoded by pRFHM1) (other)
chain: AQPPPDQNFYHHPLPHTHTHPHPHSHPHPHSHPHPHHQHPQLQLPPQFRNPFDLLFDERTGAINYNYIRPYLPNQMPKPEELPDSLVMRRPRRTRTTFTSSQIAELEQHFLQGRYLTAPRLADLSAKLALGTAQVKIWFKNRRRRHKIQSDQHKDQSYE
notes: also called LexA fused to a transcriptionally inert fragment of the Drosophila melanogaster bicoid protein
- binding result [1]: no binding
- binding result [2]: no binding

B2: WW domain from ESS 1 (other)
chain: TGLPTPWTVRYSKSKKREYFFNPETKHSQWEEPEG
notes: domain: WW
- binding result [3]: no binding
